Results from paper PMC2734569, “Functional mapping of the fission yeast DNA polymerase δ B-subunit Cdc1 by site-directed and random pentapeptide insertion mutagenesis” (BMC Molecular Biology, 2009).
Residue numbers refer to the chain shown, from its start.

What was measured:
Test in all cases: two-hybrid; LexA-Cdc1 bait (pBTM116 or pBTM116BN) with Gal4-Pol3 prey and co-expressed c-myc-tagged Cdc27 (pAA-Cdc27) in S. cerevisiae CTY10-5d; ONPG liquid culture beta-galactosidase assay, mean of triplicates, as percent of wild-type Cdc1
Conditions in all cases: partners not purified
[1] = target: T1, Cdc1 (fission yeast DNA polymerase delta B-subunit), wild type (Schizosaccharomyces pombe, UniProt P87324 1-462)
T1 construct: DNA polymerase delta B-subunit Cdc1, S. pombe; cdc1+ cDNA on a 1.5 kb BamHI fragment from pBTM116-Cdc1, ORF 1386 bp; also called WT; LexA-Cdc1; source: yeast two-hybrid fusion, in S. cerevisiae CTY10-5d
T1 sequence (looked up): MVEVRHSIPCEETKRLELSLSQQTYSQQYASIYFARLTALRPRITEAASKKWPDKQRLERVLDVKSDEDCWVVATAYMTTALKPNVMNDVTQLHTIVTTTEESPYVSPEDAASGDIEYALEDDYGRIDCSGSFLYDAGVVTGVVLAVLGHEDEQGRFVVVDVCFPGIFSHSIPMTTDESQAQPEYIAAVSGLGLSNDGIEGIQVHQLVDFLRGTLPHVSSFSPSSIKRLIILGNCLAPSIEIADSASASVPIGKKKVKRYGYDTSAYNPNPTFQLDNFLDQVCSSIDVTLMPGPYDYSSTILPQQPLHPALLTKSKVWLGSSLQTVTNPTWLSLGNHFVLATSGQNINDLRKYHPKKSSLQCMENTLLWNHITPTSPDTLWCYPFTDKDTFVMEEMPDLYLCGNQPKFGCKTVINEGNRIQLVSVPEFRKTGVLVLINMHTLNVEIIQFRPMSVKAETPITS

Cdc1-J1 = target: T2, Cdc1-J1 (Schizosaccharomyces pombe, UniProt P87324 1-462, Thr-GlyValProLeuThr-Gly)
T2 construct: Cdc1, S. pombe, with a pentapeptide inserted after residue 141; source: yeast two-hybrid fusion, in S. cerevisiae CTY10-5d
T2 sequence (looked up): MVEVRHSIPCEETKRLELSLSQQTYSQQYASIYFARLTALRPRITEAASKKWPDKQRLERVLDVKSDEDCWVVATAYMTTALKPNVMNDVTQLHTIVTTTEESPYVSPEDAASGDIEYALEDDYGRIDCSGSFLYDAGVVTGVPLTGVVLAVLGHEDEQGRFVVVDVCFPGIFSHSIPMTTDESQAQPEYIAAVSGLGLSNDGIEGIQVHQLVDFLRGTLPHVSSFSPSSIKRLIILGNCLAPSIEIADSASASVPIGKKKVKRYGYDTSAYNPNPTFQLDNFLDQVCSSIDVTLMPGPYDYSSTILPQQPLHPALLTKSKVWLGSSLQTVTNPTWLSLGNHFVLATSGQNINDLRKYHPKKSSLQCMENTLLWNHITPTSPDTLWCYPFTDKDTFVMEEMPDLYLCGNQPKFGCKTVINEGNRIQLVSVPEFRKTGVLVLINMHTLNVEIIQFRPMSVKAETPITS

Cdc1-J15 = target: T3, Cdc1-J15 (Schizosaccharomyces pombe, UniProt P87324 1-462, Gln-GlyValProLeuGln-Val)
T3 construct: Cdc1, S. pombe, with a pentapeptide inserted after residue 203; source: yeast two-hybrid fusion, in S. cerevisiae CTY10-5d
T3 sequence (looked up): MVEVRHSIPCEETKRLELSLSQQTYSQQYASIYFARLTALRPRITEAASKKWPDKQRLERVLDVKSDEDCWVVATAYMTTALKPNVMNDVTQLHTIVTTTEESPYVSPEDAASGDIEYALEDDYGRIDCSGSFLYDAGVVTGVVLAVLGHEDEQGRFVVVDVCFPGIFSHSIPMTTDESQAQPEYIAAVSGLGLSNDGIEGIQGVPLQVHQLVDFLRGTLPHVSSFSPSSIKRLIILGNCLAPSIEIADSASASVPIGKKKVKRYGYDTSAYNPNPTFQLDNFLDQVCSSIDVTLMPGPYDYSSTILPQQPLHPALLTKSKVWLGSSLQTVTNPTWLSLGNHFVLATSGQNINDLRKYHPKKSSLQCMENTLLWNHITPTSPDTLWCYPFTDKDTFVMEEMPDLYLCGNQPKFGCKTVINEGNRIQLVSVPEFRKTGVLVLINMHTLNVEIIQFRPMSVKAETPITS

Cdc1-A3 = target: T4, Cdc1-A3 (Schizosaccharomyces pombe, UniProt P87324 1-462, Asp296Ala)
T4 construct: Cdc1, S. pombe, point mutant; source: yeast two-hybrid fusion, in S. cerevisiae CTY10-5d
T4 sequence (looked up): T1 sequence (looked up) with D296A

two-hybrid beta-galactosidase activity, % of wild-type Cdc1 [1]: 100% | two-hybrid beta-galactosidase activity, % of wild-type Cdc1 (Cdc1-J1): < 1% | two-hybrid beta-galactosidase activity, % of wild-type Cdc1 (Cdc1-J15): 1% | two-hybrid beta-galactosidase activity, % of wild-type Cdc1 (Cdc1-A3): < 1%
B1: Pol3 (fission yeast DNA polymerase delta catalytic subunit) (natural protein, Schizosaccharomyces pombe, UniProt P30316 1-1086, looked up)
chain: MTDRSSNEGVVLNKENYPFPRRNGSIHGEITDVKRRRLSERNGYGDKKGSSSKEKTSSFEDELAEYASQLDQDEIKSSKDQQWQRPALPAINPEKDDIYFQQIDSEEFTEGSVPSIRLFGVTDNGNSILVHVVGFLPYFYVKAPVGFRPEMLERFTQDLDATCNGGVIDHCIIEMKENLYGFQGNEKSPFIKIFTTNPRILSRARNVFERGEFNFEELFPVGVGVTTFESNTQYLLRFMIDCDVVGMNWIHLPASKYQFRYQNRVSNCQIEAWINYKDLISLPAEGQWSKMAPLRIMSFDIECAGRKGVFPDPSIDPVIQIASIVTQYGDSTPFVRNVFCVDTCSQIVGTQVYEFQNQAEMLSSWSKFVRDVDPDVLIGYNICNFDIPYLLDRAKSLRIHNFPLLGRIHNFFSVAKETTFSSKAYGTRESKTTSIPGRLQLDMLQVMQRDFKLRSYSLNAVCSQFLGEQKEDVHYSIITDLQNGTADSRRRLAIYCLKDAYLPQRLMDKLMCFVNYTEMARVTGVPFNFLLARGQQIKVISQLFRKALQHDLVVPNIRVNGTDEQYEGATVIEPIKGYYDTPIATLDFSSLYPSIMQAHNLCYTTLLDSNTAELLKLKQDVDYSVTPNGDYFVKPHVRKGLLPIILADLLNARKKAKADLKKETDPFKKAVLDGRQLALKVSANSVYGFTGATNGRLPCLAISSSVTSYGRQMIEKTKDVVEKRYRIENGYSHDAVVIYGDTDSVMVKFGVKTLPEAMKLGEEAANYVSDQFPNPIKLEFEKVYFPYLLISKKRYAGLFWTRTDTYDKMDSKGIETVRRDNCPLVSYVIDTALRKMLIDQDVEGAQLFTKKVISDLLQNKIDMSQLVITKALSKTDYAAKMAHVELAERMRKRDAGSAPAIGDRVAYVIIKGAQGDQFYMRSEDPIYVLENNIPIDAKYYLENQLSKPLLRIFEPILGEKASSLLHGDHTRTISMAAPSVGGIMKFAVKVETCLGCKAPIKKGKTALCENCLNRSAELYQRQVAQVNDLEVRFARLWTQCQRCQGSMHQDVICTSRDCPIFYMRIAEHKKLQQSVDLLKRFDEMSW
notes: DNA polymerase delta catalytic subunit Pol3, S. pombe; prey plasmid named pACT-Pol3 in the results and pGAD2F-Pol3 in the methods; also called Gal4-Pol3; pACT-Pol3; source: yeast two-hybrid fusion, in S. cerevisiae CTY10-5d
